Source: patent publication US12673985B2, “Method for the treatment or prophylaxis of cancer by targeting the extracellular portion of keratin 14 (KRT14) residing on cancer cells” (Hudson Institute of Medical Research, priority 2019, dated 2026)
“Also recorded” adds a separate entry of the source.

Columns and labels:
[1] = tested on: OVCAR4 ovarian cancer cells; test: Real time cell analysis (RTCA) of proliferation with cisplatin and mAb AN-17; type: cell-based, human
Description: Real time cell analysis (RTCA) was conducted as previously described (PMID: 31443478; Bilandzic et al., Cancers (Basel). 2019; 11(9), E1228) using an xCELLigence RTCA SP 96-well instrument (ACEA Biosciences). Cell lines were synchronized in G0 by overnight incubation in serum-free media and were seeded at 0.5×10^3 cells/0.15 ml/per well. […] Impedance readings were taken every 15 minutes for the experimental duration. mAb AN-17 comprises the heavy chain variable region of SEQ ID NO:3 and the light chain variable region of SEQ ID NO:5, encoded by the nucleic acid sequences of SEQ ID NOs:2 and 4, respectively (see also FIGS. 21 and 22A-22B).

[2] = tested on: SJ-GBM2 primary glioblastoma multiforme; test: In vitro wound repair assay; type: cell-based; conditions: mAb 1 μg/ml; 16 hrs
Description: In vitro wound repair assays were conducted on the following cancer cell lines: BT16 atypical teratoid rhabdoid (brain) carcinoma, NCI-H1573 lung adenocarcinoma, SJ-GBM2 primary glioblastoma multiforme, AN3CA endometrial carcinoma, SW620 colorectal carcinoma and MDA-MB-468 breast carcinoma. Cells were grown in complete medium to confluency in a 12-well plate, and subsequently serum-starved overnight to synchronize at G0. The following day, cell culture medium was removed and the cell monolayers were wounded by scraping with a pipette tip attached to suction. Non-adherent cells were removed by gentle washes with phosphate buffered saline (PBS) and complete growth medium was added to each well, in either the absence or presence of mAb AN-17 (at 1 μg/ml). The wound area was imaged every hour for 0-24 hours. Wound closure was measured in image series using AnalySIS LS Research Software (Olympus) to determine the area of the wound on each day. Experiments were repeated in triplicate with at least six wound areas observed per growth condition.

[3] = tested on: SW620 colorectal carcinoma; test: In vitro wound repair assay; type: cell-based; conditions: antibody 1 μg/ml; 16 hours
Description: (§1) In vitro wound repair assay. Ovarian cancer cells (or other cancer cell lines—BT16, NCI-H1573, AN3CA, SW620 and MDA-MB-468) were grown in complete medium to confluency in a 12-well plate, then serum-starved overnight to synchronize at G0. The following day cell culture medium was removed, and cell monolayers were wounded by scraping with a pipette tip attached to suction. Non-adherent cells were removed by gentle washes with PBS, and complete growth medium with or without mAb AN-17 (1 μg/ml) or commercial KRT14 polyclonal antibody (1 μg/ml) was replaced. The wound area was imaged under a phase microscope (Leica) at regular intervals ranging from 0-72 h. Wound closure was measured in image series using AnalySIS LS Research Software (Olympus) to determine the area of the wound on each day. Experiments were repeated in triplicate with at least six wound areas observed per growth condition.
(§2) In vitro wound repair assays were conducted using AN3CA endometrial carcinoma and SW620 colorectal carcinoma lines. Cells were grown in complete medium to confluency in a 12-well plate, then serum-starved overnight to synchronize at G0. The following day cell culture medium was removed, and cell monolayers were wounded by scraping with a pipette tip attached to suction. […] Wound closure was measured in image series using AnalySIS LS Research Software (Olympus) to determine the area of the wound on each day. […]

[4] = tested on: AN3CA endometrial carcinoma; test: In vitro wound repair assay; type: cell-based; conditions: antibody 1 μg/ml; 16 hours
Description: as §1, §2

KRT14 = target: T1, KRT14 (Homo sapiens, UniProt P02533); test: Immunofluorescence staining of ovarian cancer cell lines SKOV-3, Ovcar4 and Cov362.3; type: cell-based; set-up: endogenous in cells; host or cells: SKOV-3, Ovcar4, Cov362.3; conditions: 1 μg/ml
T1 sequence (P02533 1-472): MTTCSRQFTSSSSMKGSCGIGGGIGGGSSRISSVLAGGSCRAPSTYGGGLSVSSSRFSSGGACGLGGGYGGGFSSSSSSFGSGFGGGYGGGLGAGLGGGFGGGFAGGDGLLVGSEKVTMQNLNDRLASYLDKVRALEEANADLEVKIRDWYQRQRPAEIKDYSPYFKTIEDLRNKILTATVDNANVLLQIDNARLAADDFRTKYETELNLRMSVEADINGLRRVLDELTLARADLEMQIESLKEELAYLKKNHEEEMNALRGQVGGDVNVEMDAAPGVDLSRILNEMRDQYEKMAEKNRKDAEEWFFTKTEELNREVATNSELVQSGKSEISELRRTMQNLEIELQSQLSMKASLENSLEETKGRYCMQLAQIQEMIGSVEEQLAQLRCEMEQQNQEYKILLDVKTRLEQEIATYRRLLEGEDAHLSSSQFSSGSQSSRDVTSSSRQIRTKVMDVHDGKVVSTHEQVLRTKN
Description: The ovarian cancer cell lines SKOV-3, Ovcar4 and Cov362.3 were seeded onto 96 well black fluortrac imaging plates. Intact or fixed (1% paraformaldehyde; PFA) and permeabilized (0.1% Triton X) cells were stained using mAb AN-17. For fixed cells, samples were blocked in 10% fetal bovine serum (FBS) and then stained with 1 μg/ml mAb AN-17 for one hour at room temperature. Cells were subsequently washed with PBS and stained with the Alexa Fluor®-647 goat anti-mouse secondary at 1:2000 for one hour at room temperature. For intact cells, samples were stained with 1 μg/ml mAb AN-17 conjugated to Alexa-647 in PBS containing 1% FBS for two hours at 37° C., the medium was replaced with fresh PBS/1% FBS and cells were immediately imaged. Samples were imaged using the Cytation 3 multimode reader at 4× magnification.

B1: mAb AN-17: monoclonal anti-KRT14 antibody; heavy chain variable region SEQ ID NO:3, light chain variable region SEQ ID NO:5 (clone AN-17A RG4.E5b.A7.B4) (antibody, listed as Mus musculus, V domains shown)
VH: QVQLKESGPGLVAPSQSLSITCTVSGFSLSRYSVHWVRQPPGKGLEWLGMIWGGGSTDYNSALKSRLSISKDNSKSQVFLKMNSLQTDDTAMYYCARKDYGYSYFDYWGQGTTLTVSS
VL: DVLMTQTPLSLPVSLGDQASISCRSSQSIVHSNGNTYLEWYLQKPGQSPKLLIYKVSNRFSGVPDRFSGSGSGTDFTLKISRVEAEDLGVYYCFQGSHVPFTFGSGTKLEIKRADAAPTVS
enhancement of the toxicity of cisplatin ([1]; cisplatin at sub-lethal doses): significantly enhanced the toxicity of cisplatin | increase in sensitivity of cells to standard platinum chemotherapy ([1]; in vitro): at least 10 fold | cell viability or proliferation ([1]; mAb AN-17 alone (1 ug/ml)): had no effect on cell viability or proliferation | wound closure / migration, SJ-GBM2 [2]: failed to close the wound; also recorded: impaired | wound closure / migration, SW620 [3]: failed to close the wound; also recorded: impaired | wound closure / migration, AN3CA [4]: failed to close the wound; also recorded: impaired | staining localization (KRT14; fixed and permeabilized cells): Specific intracellular cytoplasmic localization | staining localization (KRT14; intact live cells): predominant cell surface localization
